Substrate in series [1]: Nc1ncnc2c1ncn2[C@@H]1O[C@H](COP(=O)(O)OP(=O)(O)OP(=O)(O)O)[C@@H](O)[C@H]1O
The experiment in a line: purified protein. The class given is biochemical, Nostoc sp. PCC 7120 = FACHB-418. The note with it: reduced form (pretreated with 50 mM DTTred), ATP varied 0-2 mM, 2 mM ribose 5-phosphate plus ribose 5-phosphate isomerase, 10 mM MgCl2, 100 mM KCl, pH 7.5, 30 °C.

Substrate in series [2]: Nc1ncnc2c1ncn2[C@@H]1O[C@H](COP(=O)(O)OP(=O)(O)OP(=O)(O)O)[C@@H](O)[C@H]1O
Briefly: purified protein. The class given is biochemical, Arabidopsis thaliana. The conditions noted are these: reduced form (pretreated with 50 mM DTTred), ATP varied 0-2 mM, 2 mM ribose 5-phosphate plus ribose 5-phosphate isomerase, 10 mM MgCl2, 100 mM KCl, pH 7.5, 25 °C.

B1: A.7120_PRK (Nostoc sp. PCC 7120 = FACHB-418) (protein)
chain: MTTKPERVVLIGVAGDSGCGKSTFLRRLIDLFGEEFMTVICLDDYHSLDRKQRKETGITALDPRANNFDLMYEQIKALKEGQTINKPIYNHETGLIDPPEIVKPNHIVVVEGLHPLYDERVRSLLDFSVYFDISDEVKIAWKIQRDMAERGHRYEDVLAAINSRKPDFQKYIEPQREFADVVLQVLPTNLIKDDTERKVLRVRMLQREGKEGFEPAYLFDEGSTINWTPCGRKLTCSYPGMQLYYGSDVYYGRYVSVLEVDGQFDNLEEVIYIETHLSNTSTKYQGELTQLLLQHREYPGSNNGTGFFQVLTGLKMRAAYERLTTKEAKLAVQV
notes: recombinant in E. coli BL21(DE3), pET-21a; no tag stated; Cys pairs Cys19/Cys41 and Cys230/Cys236
Regarding B1, in the series “purified protein [1]”, the Km is 109 ± 4.5 µM and the Vmax was determined as 214 µmol/min/mg.

B2: AtPRK (Arabidopsis thaliana) (protein)
chain: AQETIVIGLAADSGCGKSTFMRRLTSVFGGAAKPPKGGNPDSNTLISDTTTVICLDDYHSLDRYGRKEQKVTALDPRANDFDLMYEQVKALKNGIAVEKPIYNHVTGLLDPPELIQPPKILVIEGLHPMFDERVRDLLDFSIYLDISNEVKFAWKIQRDMAERGHSLESIKASIEARKPDFDAFIDPQKQYADAVIEVLPTTLIPDDNEGKVLRVRLIMKEGVKYFSPVYLFDEGSTISWIPCGRKLTCSYPGIKFNYEPDSYFDHEVSVLEMDGQFDRLDELIYVESHLSNLSTKFYGEVTQQMLKHADFPGSNNGTGLFQTIVGLKIRDLYEQLIANKATARAEAKA
notes: recombinant in E. coli BL21(DE3), pET-21a; no tag stated; dimer, calculated 79,000
Take B2: in “purified protein [2]”, the Km turned out to be 46.5 ± 6.5 µM and the Vmax was found to be 289 µmol/min/mg.

Usually Km stands for the concentration of substrate that gives half-maximal velocity. As a reminder, the Vmax is the rate approached at saturating substrate.

(Values after paper PMC9199185, “The Importance of the C-Terminal Cys Pair of Phosphoribulokinase in Phototrophs in Thioredoxin-Dependent Regulation” (Plant and Cell Physiology, 2022).)
